B1: mouse sCD25 (murine soluble CD25, aa1-208 of NP_032393, C-terminal 8-histidine) (receptor)
chain: ELCLYDPPEVPNATFKALSYKNGTILNCECKRGFRRLKELVYMRCLGNSWSSNCQCTSNSHDKSRKQVTAQLEHQKEQQTTTDMQKPTQSMHQENLTGHCREPPPWKHEDSKRIYHFVEGQSVHYECIPGYKALQRGPAISICKMKCGKTGWTQPQLTCVDEREHHRFLASEESQGSRNSSPESETSHHHHHHHH
notes: range 1-208; Secreted from stably transfected HEK293F cells and purified on Ni-NTA; The construct is defined as aa1-208, signal peptide included; also called murine sCD25; mCD25

What was measured:
[1] = target: B1; assay: SPR (Biacore T200), steady-state fit; mouse IL-2 (1000-3.9 nM) injected over immobilized mouse sCD25; mean ± SD of three injection series
Description: (§1) SPR experiments were performed on a Biacore T200 instrument at 25° C. using a flowrate of 30 μL min-1 in a running buffer of HBS-T (10 mM HEPES (pH 7.3), 140 mM NaCl, 0.005% Tween 20). Proteins were immobilized on a CMD200 biosensor chip (Xantec Bioanalytics) using ethyl-3-(3-dimethylaminopropyl)-carbodiimide (EDC)/N-hydroxysuccinimide/(NHS) coupling chemistry. […] A reference surface was created by EDC/NHS activation followed by a seven-minute injection of 1 M ethanolamine (pH 8.5). […] Surfaces were regenerated to baseline by injection of 2M NaCl for three minutes. Each injection series was performed in triplicate. The resulting reference-corrected sensorgrams were blank subtracted using an injection of HBS-T and fit to a steady-state model of binding using T200 Evaluation software. KD values and Rₘₐₓ values are reported as the mean±standard deviation (SD). All figures were prepared using Graphpad Prism 8.0.

[2] = target: T1, human sCD25(C213T) (aa1-240 of NP_000408 with C213T, C-terminal 8-histidine) (human, UniProt P01589 22-240); assay: SPR (Biacore T200), steady-state fit; mouse IL-2 (1000-3.9 nM) injected over immobilized human sCD25(C213T); mean ± SD of three injection series [cont'd.) B]
T1 construct: range 1-240; Secreted from stably transfected HEK293F cells and purified on Ni-NTA; the inserted alanine shifts positions in the construct by one; No signal peptide cleavage site is stated; also called hCD25-C213T
T1 sequence: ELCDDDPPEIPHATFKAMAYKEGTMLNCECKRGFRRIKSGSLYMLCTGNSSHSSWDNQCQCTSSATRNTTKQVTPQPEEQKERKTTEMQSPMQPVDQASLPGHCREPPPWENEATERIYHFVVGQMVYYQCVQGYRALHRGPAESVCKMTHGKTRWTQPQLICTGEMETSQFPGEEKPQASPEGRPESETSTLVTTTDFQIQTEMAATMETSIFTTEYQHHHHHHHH
Description: as §1

[3] = target: T2, human truncated-sCD25 (aa1-212 of NP_000408, C-terminal 8-histidine) (human, UniProt P01589 22-212); assay: SPR (Biacore T200), steady-state fit; mouse IL-2 (1000-3.9 nM) injected over immobilized human truncated-sCD25; mean ± SD of three injection series [cont'd.) C]
T2 construct: range 1-212; Secreted from stably transfected HEK293F cells and purified on Ni-NTA; No signal peptide cleavage site is stated; also called hCD25-trunc
T2 sequence: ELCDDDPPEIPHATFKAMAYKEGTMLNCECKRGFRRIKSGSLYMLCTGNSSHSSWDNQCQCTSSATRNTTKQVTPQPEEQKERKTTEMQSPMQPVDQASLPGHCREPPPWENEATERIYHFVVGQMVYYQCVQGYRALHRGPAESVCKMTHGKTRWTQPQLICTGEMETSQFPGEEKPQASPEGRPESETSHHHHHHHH
Description: as §1

[4] = target: T3, anti-mouse CD25-BV421 mAb (clone PC61); assay: Flow cytometry competition: mouse sCD25 (1-1000 nM) pre-incubated with BV421-PC61 for 1 h at 4 °C, then HEK cells expressing full-length mouse CD25 added; blocked: binding of the mAb to CD25 on the cells
T3 construct: Commercial fluorochrome-conjugated mAb (Biolegend), mouse-specific; also called BV421-PC61; anti-mouse CD25 mAb
Description: Then, HEKs expressing full-length transmembrane mouse CD25 or human CD25 were added to each tube and incubated for 1 hour at 4° C. and subsequently washed with HBSS two times prior to analyzing surface bound anti-CD25 mAbs by flow cytometry.

Row | Binder | Kd [1] [nM] | Kd [2] [nM] | Kd [3] [nM] | IC50 (read off the curve) [4] [nM]
1 | recombinant murine IL-2 (accession number NP_032392) (ligand, mouse, UniProt P04351 21-169, looked up, also called mouse IL-2; mIL-2) APTSSSTSSSTAEAQQQQQQQQQQQQHLEQLLMDLQELLSRMENYRNLKLPRMLTFKFYLPKQATELKDLQCLEDELGPLRHVLDLTQSKSFQLEDAENFISNIRVTVVKLKGSDNTFECQFDDESATVVDFLRRWIAFCQSIISTSPQ | 250 | 430 | 740 | –
2 | B1 | – | – | – | ~5

Source: patent US20240190935A1 (EAST CAROLINA UNIVERSITY, published 2024)
